Consider one substance from publication PMC3320896.

The target in this experiment is recombinant Hepatitis B surface antigen (rHBsAg) virus-like particle, S form of HBsAg (Hepatitis B virus). In words: cryo-EM structure; redox-treated rHBsAg VLPs in vitrified ice; 3D reconstruction with octahedral symmetry imposed, nominal resolution ~1.5 nm (FSC0.5); monomers counted from the volume of segmented protein density.

Turning to “recombinant Hepatitis B surface antigen (rHBsAg) virus-like particle, S form of HBsAg (natural protein)”, the stoichiometry N (protein monomers per particle) is 96.
